Test results as given in the RNAGym collection of RNA variant scans (doi:10.7554/elife.90254).

B1: OR4K15 (parent)
chain: GUUAACGGUCAUAGGCCAUGGAAACUAGGAGCACCAUUUCGCUGCCAGUGAAGAAAUGAACAAAGAAAAUCUGGGCCAGGCAGGCAUCAAAAGAAAUAGUCUUGCGCUCAACCAGAAAGUCUGUAAUCAUUUUAAGGGUA

Variants of: B1
Assay: self-cleavage, relative activity (ratio to wild type); higher = more cleavage; in vitro, sequencing; the parent is a self-cleaving ribozyme

| Variant | self-cleavage |
| --- | --- |
| A54G A117G | 1.68 |
| A56U A62U | 1.15 |
| A55G A126C | 0.18 |
| A55U U103C | 0.91 |
| A55G U122C | 1.2 |
| A55G U122G | 2.18 |
| A55G U122A | 1.39 |
| A56G C113U | 0.08 |
| A54G A64G | 1.77 |
| U57C A95U | 1.28 |
| U57C A95G | 1.76 |
| A54G A110U | 1.71 |
| A54U U132C | 2.02 |
| A54G U133C | 1.88 |
| A55C A82G | 0.53 |
| A55G A140U | 0.81 |
| A55G G137A | 1.82 |
| U57A A89U | 0.95 |
| G53U U87C | 0.98 |
| A55G G136A | 1.36 |
| A56G U108A | 0.02 |
| A56G A60G | 0.63 |
| A56G U122A | 0.63 |
| A55U A118G | 1.43 |

| Variant | self-cleavage |
| --- | --- |
| A54G U122G | 2.7 |
| A56U A96G | 1.62 |
| A56G G75C | 0.19 |
| A55G A92G | 0.67 |
| A55U A59G | 0.75 |
| A56G A126U | 0.95 |
| A56G A89G | 1.5 |
| A54G A67G | 1.57 |
| A54C U120C | 0.93 |
| A56G U57C | 1.27 |
| U57C A68U | 2.04 |
| A54G G115A | 0.25 |
| A56U A60G | 0.43 |
| A55G A60G | 1 |
| A55G A60U | 1.62 |
| A54C A68G | 1.03 |
| A54G C112U | 0.03 |
| A55G G65A | 1.07 |
| A55G A82C | 0.16 |
| A56G U120A | 1.19 |
| A56U U122A | 1.31 |
| A55G U139A | 1.49 |
| A55G U139C | 1.72 |
| U57A | 0.69 |

| Variant | self-cleavage |
| --- | --- |
| U57C | 0.86 |
| A56G A117U | 1.27 |
| A55G A135U | 0.94 |
| A54G A98G | 0.33 |
| A54G U103C | 0.91 |
| A54G U103A | 0.48 |
| U57A A95G | 2.11 |
| A54C A118G | 1.49 |
| A56G C101A | 0.12 |
| A55U U57C | 1.76 |
| A54U A56U | 1.8 |
| U57A A63U | 1.38 |
| A56G G136A | 1.69 |
| A56U A69U | 0.67 |
| A54U A60G | 0.97 |
| U57A A64G | 1.32 |
| A56U U133C | 2.27 |
| A54U A96G | 1.68 |
| A54G C77U | 1.46 |
| A56C A62G | 0.6 |
| A55G A68U | 1.2 |
| A55G A68C | 2.11 |
| A55G A68G | 1.23 |
| U57C A69U | 1.63 |

| Variant | self-cleavage |
| --- | --- |
| U57C A69G | 0.75 |
| A54U A117G | 1.63 |
| A55G A129C | 0.72 |
| A55G A129G | 0.99 |
| A55G A98U | 1.21 |
| A55U A94G | 1.59 |
| A55U A94U | 0.43 |
| A56G A135G | 1.61 |
| A56G A135U | 0.62 |
| A54G G75A | 0.14 |
| A56G C76U | 0.14 |
| A54G A55U | 1.55 |
| A54U A114G | 0.14 |
| A56U U132C | 1.11 |
| A55G G99A | 0.16 |
| A55U U127A | 2.63 |
| A55U U127C | 0.93 |
| G53U U127A | 1.92 |
| A55G A111U | 0.21 |
| A55G A78G | 0.23 |
| A55G A78U | 0.18 |
| A56G A118C | 0.64 |
| A54U C109U | 0.39 |
| U57A U102G | 0.16 |

| Variant | self-cleavage |
| --- | --- |
| A55G U133C | 1.83 |
| A55U A90G | 1.36 |
| A56C A78U | 0.35 |
| A55U A82U | 0.28 |
| A54U U120C | 0.32 |
| A54G C76G | 0.22 |
| A56G A66U | 0.92 |
| A55G G58A | 1.63 |
| A54G G123U | 1.75 |
| A54G A96G | 1.5 |
| A54G U120G | 2.09 |
| A54U U100C | 1.43 |
| A56G A82U | 0.23 |
| A56G A82G | 0.56 |
| A56G A82C | 0.15 |
| A56G U70A | 1.49 |
| A56G U70C | 0.95 |
| A55U G137A | 1.23 |
| A55G G138A | 1.54 |
| A56C A68G | 1.59 |
| A54G U100C | 2.16 |
| A56G U131C | 1.47 |
| A56G U131A | 0.6 |
| A56U U57C | 1.47 |

| Variant | self-cleavage |
| --- | --- |
| A55G A63U | 1.1 |
| A55G A63G | 1.43 |
| U57C A63G | 1.05 |
| A55G A66U | 0.64 |
| U57A A114G | 0.38 |
| U57A A114U | 0.03 |
| A54G A59G | 0.84 |
| A54G U108A | 0.02 |
| A54G C71U | 0.58 |
| A54G A68G | 0.91 |
| A54G C88U | 1.51 |
| A54G G74U | 0.11 |
| U57A A62U | 2.46 |
| A54G G93A | 1.21 |
| A56G A116U | 0.56 |
| A55G U130C | 0.96 |
| A54G A82C | 0.13 |
| A56G U132C | 0.6 |
| U57A U103C | 0.22 |
| A56G G99C | 0.2 |
| A54U A126G | 1.6 |
| U57A U124C | 0.68 |
| U57A A96C | 0.99 |
| U57C A89G | 0.75 |

| Variant | self-cleavage |
| --- | --- |
| A56C A66G | 0.72 |
| A54G C105U | 0.36 |
| U57C A62U | 2.11 |
| A56G U124A | 0.78 |
| A54G U127A | 2.16 |
| A56G A62C | 1.26 |
| A56G A62G | 1.92 |
| A54C U57C | 1.29 |
| A55U A111C | 0.06 |
| A56C A129G | 1.35 |
| U57C A82U | 0.21 |
| U57C A82C | 0.23 |
| A55U U130C | 1.13 |
| A55G C76U | 0.15 |
| A55G U87A | 1.33 |
| A54U A129G | 0.88 |
| U57A A60G | 1.19 |
| G53U U72A | 0.19 |
| A55U A110G | 0.23 |
| U57A A98U | 1.47 |
| A55C U87C | 0.47 |
| A55G A114C | 0.05 |
| A55G A114U | 0.02 |
